According to the supplement of paper PMC9170038:

System: MS2 coat protein
Assay: apparent KD of MS2 coat protein; designed switch direction (-1 OFF switch, 1 ON switch): -1; higher = weaker reporter binding
In short: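 The buffer was Tris-HCl pH 7.5 with KCl, MgCl2, BSA, DTT, tRNA and Tween-20. In it, SNAP-549-labelled MS2 coat protein was titrated in doubling steps from 0.7 or 1.5 nM to 3 µM over chip-bound RNA switches transcribed by stalled E. coli RNA polymerase on Illumina chips. Apparent KD is the per-design median over clusters of curve fits to normalised fluorescence.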

[1] = input ligand: microRNA oligo, concentration not stated
[2] = Eterna round: R95, input ligand: microRNA oligo, concentration not stated
[3] = Eterna round: R95, input ligand: FMN 200 uM
[4] = Eterna round: R95, input ligand: none

Sequence	apparent KD of MS2 coat protein (input ligand: FMN 200 uM)	apparent KD of MS2 coat protein [1]	apparent KD of MS2 coat protein (input ligand: none)	apparent KD of MS2 coat protein [2]	further results
AAGAGGAUCGGAGGAUAUGGAGCUGAAACGGCGCUAGAAGGCCGUCCAGUGUAACAUGAGGAUCACCCAUGUAGGGACCUCUAA [EX ng 1 4.1] (Eterna round: R96, puzzle: Exclusion NG 1)	314 nM	65.5 nM	102 nM		
AAGAGGCUAGGAUAUACAUGAGGAUCACCCAUGUGAGGGCACGGCCGGCGCGUGGCCGGUAGAAGGAGUCAAAA [Exc;s3-VIII] (puzzle: Exclusion 3)				17.5 nM	
AAGAUGCGGAUAGGAUAUGGAGAGAAAGAAAGACCAGAAGGAUUGGUCAUAUAACAUGAGGAUCACCCAUGUAUAUGUUGUGAA [AK ExNG1-3.2] (Eterna round: R96, puzzle: Exclusion NG 1)		13 nM			
AAGAUUAUUUCAGGAUAUAGAUUGAUGAUCGUACUAGAAGGGAAAACACAGUACAUGAGGAUCACCCAUGUUCAUGUAGUGCCA [Eternabot solution 29] (Eterna round: R96, puzzle: Exclusion NG 1)	17.2 nM	13.4 nM	17.4 nM		
AAGCCUCAAGUUAGGAUAUUAAUAAGGCAAAUUAUUAAGAAGGGACAUGAGGAUCACCCAUGUAAAAUUCUCAC [Biedredi] (Eterna round: R97, puzzle: Brourd's mod of Exclusion 4)	140 nM		57.5 nM		
AAGCGCGAGGCAGGAUAUGCAGAGCGGGUGGCCCGUGCAGAAAAUAACAUGAGGAUCACCCAUGUGCAGAAGGGCCGGGUGACC [Anataredra] (Eterna round: R96, puzzle: Exclusion NG 2)	60.5 nM	36.1 nM	72.9 nM		
AAGGUGUUAGGAUAUCGUAGUUUGUGGCAGACGGGAUUUUGCGAGAAGGAACAUGAGGAUCACCCAUGUCGGAU [JR_Exclu4_Sub041] (puzzle: Exclusion 4)				27.1 nM	
AAGUACCGUCACGAAAGUGAUGGUACAACAAGUAAAUGUACAUGAGGAUCACCCAUGUCCUCAAUUGCUCGUCUUAU [Sensor 3 - 60] (puzzle: Sensor v3, turn-off variant 2)				202 nM	apparent KD of MS2 coat protein [3]: 722 nM; apparent KD of MS2 coat protein [4]: 745 nM
AAGUAGACAGUGAGGAUAUUGGUGGAAUGACACAUUAAGAAGGUACAUGAGGAUCACCCAUGUGGGUAAUGUCG [Brourd's EX4 #26] (Eterna round: R97, puzzle: Brourd's mod of Exclusion 4)	64.8 nM		45.8 nM		
AAGUAUCAUGUAGGAUAUGCUAUCCGAACGGUAGCAGAAGGACAUGAGGAUCACCCAUGUUCUCAUCUGUGAGAACAGAUGUCU [Ex NG1 #5] (Eterna round: R96, puzzle: Exclusion NG 1)	95.2 nM	19.4 nM	22.3 nM		
AAGUGGUGAGGAUAUAUAUACCAAUCUUCGAGGCACGACCAACAUGAGGAUCACCCAUGUAGAAGGCACCACAA [Eternabot (Original) Solution 39] (Eterna round: R97, puzzle: Exclusion 2)	32.7 nM		14.9 nM		
AAUAAACUAGGAUAUACAUGAGGAUCACCCAUGUGUCGCCACGUGCUUGCUCACUCGUGUAGAAGGAGUACGGA [Atisan] (puzzle: Exclusion 3)				33.4 nM	
AAUAAAGGCCGAGGAUAUCGGAAAGGAAGUGUACGAGAAGGCGGCAAAAGAACAUGAGGAUCACCCAUGUGGGCCGAUCUUCCG [PowerStrip EXNG 1.2] (Eterna round: R96, puzzle: Exclusion NG 1)	26.4 nM	10 nM	18 nM		
AAUAAAGGCCGAGGAUAUCGGAAAGGAAGUGUACGAGAAGGUGGCAAAAGAACAUGAGGAUCACCCAUGUGGGCCGAUCUUCCG [PowerStrip EXNG 1.4] (Eterna round: R96, puzzle: Exclusion NG 1)	33.3 nM	28.8 nM	29.9 nM		
AAUAACAAGCAGAUCCUAAACAUGAGGAUCACCCAUGUGCUCGUCUUGUAAAGUACUAUCACGAAAGUGAUAGUACA [Sensor 3, v1 - 59] (puzzle: Sensor v3, turn-off variant 1)				186 nM	apparent KD of MS2 coat protein [3]: 67.5 nM; apparent KD of MS2 coat protein [4]: 76.5 nM
AAUAACAAGUUGAUCCUACACAUGAGGAUCACCCAUGUGCUCGUCUUGUAAAGUACUAUCACGAAAGUGAUAGUACA (Eterna round: R97, puzzle: Sensor, turn-off variant 1)	50.2 nM		66 nM		
AAUAACAGAGGAUAUACUGUUUUAUGUAUUUAUUAUUUUAAACAUGAGGAUCACCCAUGUAGAAGGCUGAAUGA [JMF 55] (puzzle: Exclusion 2)				20.7 nM	
AAUAACAUGUUGAUCAAAUACAUGAGGAUCACCCAUGUAUGCUUUUUGCUCGAUAAGAUCAACUAAUAAUAAUAAUA [StovNew/1-A] (Eterna round: R97, puzzle: Sensor, turn-off variant 1)	14 nM		15.6 nM		

Sequence	apparent KD of MS2 coat protein (input ligand: FMN 200 uM)	apparent KD of MS2 coat protein [1]	apparent KD of MS2 coat protein (input ligand: none)	apparent KD of MS2 coat protein [2]	further results
AAUAACGAGCCGAUCCUCCACAUGAGGAUCACCCAUGUGUUCGUCUUGUAAAGUACUAUCACGAAAGUGAUAGUACA [mod jandersonlee] (Eterna round: R97, puzzle: Sensor, turn-off variant 1)	1100 nM		1040 nM		
AAUAAGCAAGGAUAUACGACGCAGAGCGUCAGUGGGCGAUGACAUGAGGAUCACCCAUGUAGAAGGUGCACAUC [Veisbebi] (puzzle: Exclusion 2)				81.5 nM	
AAUAAGCUAGGAUAUACAUGAGGAUCACCCAUGUCCACGCUCUGGAGGGCUGAAUGAUGUAGAAGGAGCAGUGG [Zabier] (puzzle: Exclusion 3)				19.2 nM	apparent KD of MS2 coat protein [3]: 17.2 nM; apparent KD of MS2 coat protein [4]: 13.9 nM
AAUAAUAAAGUCAGGAUAUCUAGAGCUGCGGCUCUAGAGAAGGGACAUGAGGAUCACCCAUGUCACUCAAUAAU [BmEx4/3-D3] (Eterna round: R97, puzzle: Brourd's mod of Exclusion 4)	18.1 nM		14.7 nM		
AAUAAUCAUGUAGGAUAUGCGUGGCGAAGCUAUGCAGAAGGACAUGAGGAUCACCCAUGUUCUAGCGUCUGCGUACAGAUGCUA [Mat - Exclusion NG 1 - Mod of JL - D79] (Eterna round: R96, puzzle: Exclusion NG 1)	123 nM	36.6 nM	37.1 nM		
AAUACAAGCUAUUGAUCCCACAUGAGGAUCACCCAUGUAGGUGGCGGUGACACCUCCUUUACGAUAGCUCGUCUUAU [Sensor-V1 #54] (Eterna round: R97, puzzle: Sensor, turn-off variant 1)	141 nM		226 nM		
AAUACUAACACGAAAGUGUUAGUAAAAUAAGCUUGUGGUACAUGAGGAUCACCCAUGUCCUCAUAAGCUCGUCUUAU [Mat - Sensor v3 - Turn-off var 2 - D43] (puzzle: Sensor v3, turn-off variant 2)				75.4 nM	apparent KD of MS2 coat protein [3]: 23 nM; apparent KD of MS2 coat protein [4]: 21.4 nM
AAUCCACAUGAGGAUCACCCAUGUCAGGAUAUCGCGCGCGCGUUUUCGGUCUCGCGCGCGAGAAGGGACGGCUG (puzzle: Exclusion 1)				22 nM	
AAUCCACAUGAGGAUCACCCAUGUCAGGAUAUCGCGCGCGCGUUUUCGGUCUUUCGCGCGAGAAGGGACGACUG (puzzle: Exclusion 1)				14.1 nM	
AAUGAUUGACGAGGAUAUUGUGGUAAAACACGACGAGAAGGCGUAUGUCACAUGAGGAUCACCCAUGUGAGCUUUGUGGAUAUA [Ex NG1 #71] (Eterna round: R96, puzzle: Exclusion NG 1)	31.4 nM	23.4 nM	35.5 nM		
AAUGUUGAUGUGAGGAUAUACAUAGUUUGACCGUAGUAGAAGGCACAUGAGGAUCACCCAUGUAGAUGUUUGGU [JR_BME4_Sub004] (puzzle: Brourd's mod of Exclusion 4)				12.5 nM	
AAUUAACAUGUAGGAUAUCUGCACGUGUAGUGCAGAGAAGGACAUGAGGAUCACCCAUGUAUAGCGACUUCGGUCGCAAUAAUU [ENG1/2-B3] (Eterna round: R96, puzzle: Exclusion NG 1)	313 nM	119 nM	140 nM		
AAUUAGUAUGUGAGGAUAUUGAUGUAAUGACGGUUUAAGAAGGCACAUGAGGAUCACCCAUGUAGGUGCUCACG [JR_BMEx4_Sub007] (Eterna round: R97, puzzle: Brourd's mod of Exclusion 4)	380 nM		70.4 nM		
AAUUAGUAUGUGAGGAUAUUGAUGUAAUGAUGGUUUAAGAAGGCACAUGAGGAUCACCCAUGUAGGAAAUCACG [JR_BMEx4_Sub006] (Eterna round: R97, puzzle: Brourd's mod of Exclusion 4)	37.8 nM		29 nM		
AAUUAUUAUUGAGGAUAUCGUAUUGAAACAAUACGAGAAGGCGGAAUAAACAUGAGGAUCACCCAUGUGAGCCUGAUGCUUGUG [Ex NG1 #42] (Eterna round: R96, puzzle: Exclusion NG 1)		13.4 nM			
AAUUCACAUGAGGAUCACCCAUGUCAGGAUAUGGUUUCACGUGUUUCGGUGCUUGAGGCCAGAAGGGACAGCUA (puzzle: Exclusion 1)				62.4 nM	
AAUUCACAUGAGGAUCACCCAUGUCAGGAUAUGGUUUCACGUUUUUCUUUUCUUGAGGCCAGAAGGGACAGCUA (puzzle: Exclusion 1)				60.1 nM	
AAUUCGGCAGGAUAUACAUGAGGAUCACCCAUGUAAAUUUUUCGUUUAACUUGAAUGUGUAGAAGGGCCAUUAA [Ex3 #63] (Eterna round: R97, puzzle: Exclusion 3)	27.6 nM		28.8 nM		
